Measured values taken from patent US20150166666A1 (Chugai, published 2015).
Like-named read-outs stand apart in the source and are kept apart here. Each block holds one binder with its values, some of them ahead of it.

Legend:
[1] = molecular target: T1, Soluble human FcRn (complex of FcRn and beta2-microglobulin) (human, UniProt P55899 24-290; P16213 21-119); experiment: Biacore, binding to human FcRn
T1 construct: Both constructs are stated with their signal regions (Met1-Leu290; Met1-Met119)

[2] = molecular target: T2, Soluble recombinant human IL-6 receptor (SR344) (human, UniProt P08887 20-344, limits assumed, biotinylated (sites not given) only in the membrane-type dissociation assay); experiment: cell-based or functional assay
T2 sequence (looked up): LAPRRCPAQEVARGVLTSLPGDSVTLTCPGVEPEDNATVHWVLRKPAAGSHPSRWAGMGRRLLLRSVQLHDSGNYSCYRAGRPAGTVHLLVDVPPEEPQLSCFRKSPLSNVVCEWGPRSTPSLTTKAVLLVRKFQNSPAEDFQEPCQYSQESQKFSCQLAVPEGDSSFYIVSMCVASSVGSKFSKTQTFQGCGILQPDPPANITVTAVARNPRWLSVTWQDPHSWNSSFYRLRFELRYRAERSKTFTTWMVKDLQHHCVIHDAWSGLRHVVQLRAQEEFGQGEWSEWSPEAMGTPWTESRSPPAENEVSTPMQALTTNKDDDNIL

[3] = molecular target: T2, Soluble recombinant human IL-6 receptor …; experiment: SPR, Biacore T100, biotinylated SR344 on streptavidin chip as membrane-type IL-6 receptor, ratio of dissociation rates
Method: The rates of dissociation of TOCILIZUMAB, Fv3-M73, and Fv4-M73 from membrane-type IL-6 receptor at pH 7.4 and 5.8 were determined.
(§1) The antigen-antibody reaction with membrane-type IL-6 receptor at pH 5.8 and pH 7.4 was observed using Biacore T100 (GE Healthcare). The binding to membrane-type IL-6 receptor was assessed by evaluating the binding to soluble human IL-6 receptor immobilized onto the sensor chip. SR344 was biotinylated by a method known to those skilled in the art. Based on the affinity between biotin and streptavidin, biotinylated soluble human IL-6 receptor was immobilized onto the sensor chip via streptavidin. All measurements were conducted at 37° C. The mobile phase buffer was 10 mM MES (pH 5.8), 150 mM NaCl, and 0.05% Tween 20. […] The dissociation rate constant (kd (1/s)) at pH 5.8 was calculated using Biacore T100 Evaluation Software (GE Healthcare) by fitting only the dissociation phase at pH 5.8. The sample concentration was 0.25 μg/ml. Binding was carried out in 10 mM MES (pH 7.4), 150 mM NaCl, and 0.05% Tween 20, and dissociation was carried out in 10 mM MES (pH 5.8), 150 mM NaCl, and 0.05% Tween 20. Likewise, the dissociation rate constant (kd (1/s)) at pH 7.4 was calculated using Biacore T100 Evaluation Software (GE Healthcare) by fitting only the dissociation phase at pH 7.4. The sample concentration was 0.5 μg/ml. Binding was carried out in 10 mM MES (pH 7.4), 150 mM NaCl, and 0.05% Tween 20, and dissociation was carried out in 10 mM MES (pH 7.4), 150 mM NaCl, and 0.05% Tween 20.

[4] = molecular target: T2, Soluble recombinant human IL-6 receptor …; experiment: as above; remark: listed apart in the source
Method: as §1

[5] = molecular target: T1, Soluble human FcRn (complex of FcRn and …); experiment: Biacore, binding to human FcRn; remark: listed apart in the source
[6] = molecular target: T2, Soluble recombinant human IL-6 receptor …; experiment: SPR, Biacore T100, soluble IL-6 receptor as analyte
Method: (§2) Antigen-antibody reaction kinetics was analyzed using Biacore T100 (GE Healthcare). The soluble human IL-6 receptor-antibody interaction was measured by immobilizing appropriate amounts of protein A or protein A/G or anti-IgG (γ-chain specific) F(ab′)2 onto a sensor chip by amine coupling method, binding antibodies of interest onto the chip at pH7.4, and then running soluble IL-6 receptor adjusted to various concentrations at pH7.4 over the chip as an analyte. All measurements were carried out at 37° C. The kinetic parameters, association rate constant kₐ (1/Ms) and dissociation rate constant kd (1/s) were calculated from the sensorgrams obtained by measurement. Then, KD (M) was determined based on the rate constants. The respective parameters were determined using Biacore T100 Evaluation Software (GE Healthcare).

[7] = molecular target: T2, Soluble recombinant human IL-6 receptor …; experiment: SPR, Biacore T100, antibody captured on chip, soluble IL-6 receptor as analyte; ratio against TOCILIZUMAB
Method: as §2

[8] = molecular target: T2, Soluble recombinant human IL-6 receptor …; experiment: cell-based or functional assay; remark: listed apart in the source

B1: TOCILIZUMAB-M58 (H chain WT-M58; L chain WT-kappa) (antibody, IgG2)
heavy: QVQLQESGPGLVRPSQTLSLTCTVSGYSITSDHAWSWVRQPPGRGLEWIGYISYSGITTYNPSLKSRVTMLRDTSKNQFSLRLSSVTAADTAVYYCARSLARTTAMDYWGQGSLVTVSSASTKGPSVFPLAPSSKSTSGGTAALGCLVKDYFPEPVTVSWNSGALTSGVHTFPAVLQSSGLYSLSSVVTVPSSNFGTQTYTCNVDHKPSNTKVDKTVERKSCVECPPCPAPPVAGPSVFLFPPKPKDTLMISRTPEVTCVVVDVSQEDPEVQFNWYVDGVEVHNAKTKPREEQFNSTFRVVSVLTVVHQDWLNGKEYKCKVSNKGLPAPIEKTISKTKGQPREPQVYTLPPSQEEMTKNQVSLTCLVKGFYPSDIAVEWESNGQPENNYKTTPPMLDSDGSFFLYSKLTVDKSRWQEGNVFSCSVMHEALHNHYTQKSLSLSP
light: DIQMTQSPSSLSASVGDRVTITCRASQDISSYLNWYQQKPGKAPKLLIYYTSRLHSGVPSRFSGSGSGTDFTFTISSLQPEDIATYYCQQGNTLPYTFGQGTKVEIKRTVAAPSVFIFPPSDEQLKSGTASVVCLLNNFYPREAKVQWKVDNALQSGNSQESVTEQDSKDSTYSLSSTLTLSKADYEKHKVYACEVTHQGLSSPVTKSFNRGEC
notes: M58 constant region: altered IgG2 (SKSC with further changes, Gly446 and Lys447 deleted)
fold superior binding than TOCILIZUMAB-IgG1 [1]: ~1.4 times

B2: TOCILIZUMAB-M73 (H chain WT-M73; L chain WT-kappa) (antibody)
heavy: QVQLQESGPGLVRPSQTLSLTCTVSGYSITSDHAWSWVRQPPGRGLEWIGYISYSGITTYNPSLKSRVTMLRDTSKNQFSLRLSSVTAADTAVYYCARSLARTTAMDYWGQGSLVTVSSASTKGPSVFPLAPSSKSTSGGTAALGCLVKDYFPEPVTVSWNSGALTSGVHTFPAVLQSSGLYSLSSVVTVPSSNFGTQTYTCNVDHKPSNTKVDKTVERKSCVECPPCPAPPVAGPSVFLFPPKPKDTLMISRTPEVTCVVVDVSQEDPEVQFNWYVDGVEVHNAKTKPREEQFNSTFRVVSVLTVVHQDWLNGKEYKCKVSNKGLPAPIEKTISKTKGQPREPQVYTLPPSQEEMTKNQVSLTCLVKGFYPSDIAVEWESNGQPENNYKTTPPMLDSDGSFFLYSKLTVDKSRWQEGNVFSCSVMHEALHAHYTQKSLSLSP
light: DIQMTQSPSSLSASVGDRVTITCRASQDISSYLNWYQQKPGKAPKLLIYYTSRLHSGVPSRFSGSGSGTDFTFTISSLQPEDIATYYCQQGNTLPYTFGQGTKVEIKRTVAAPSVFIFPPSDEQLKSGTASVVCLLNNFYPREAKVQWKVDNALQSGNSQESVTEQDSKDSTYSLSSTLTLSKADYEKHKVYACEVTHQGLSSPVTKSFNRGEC
notes: M73 constant region: M58 with asparagine 434 (EU) changed to alanine
fold superior binding than TOCILIZUMAB-IgG1 [1]: ~3.8 times

B3: TOCILIZUMAB (H chain WT-IgG1; L chain WT-kappa) (antibody)
heavy: not shown
light: not shown
notes: IgG1/kappa; also called TOCILIZUMAB-IgG1; humanized anti-IL-6 receptor IgG1 antibody
IC50 (read off the curve) [2]: ~0.5 µg/mL
kd (pH 5.8)/kd (pH 7.4), pH … [3]: 1
kd (pH 5.8)/kd (pH 7.4), pH … [4]: 1
Kd [5]: 1620 nM

B5: H53/L28 (H chain H53-IgG1; L chain L28-kappa) (antibody, V domains shown)
VH: QVQLQESGPGLVKPSETLSLTCAVSGYSISDDHAWSWVRQPPGEGLEWIGYISYSGITNYNPSLKGRVTISRDTSKNQFSLKLSSVTAADTAAYYCARSLARTTAMDYWGEGTLVTVSS
VL: DIQMTQSPSSLSASVGDSVTITCQASQDISSYLNWYQQKPGKAPELLIYYGSELHSGVPSRFSGSGSGTDFTFTISSLEAEDAATYYCQQGNSLPYTFGQGTKVEIER
notes: IgG1/kappa; also called TOCILIZUMAB with reduced isoelectric point
IC50 (read off the curve) [2]: ~0.1 µg/mL
fold higher affinity than TOCILIZUMAB [6]: ~6 times

B6: Fv3-M73 (H chain VH4-M73; L chain VL1-kappa) (antibody, V domains shown)
VH: QVQLQESGPGLVKPSETLSLTCAVSGHSISHDHAWSWVRQPPGEGLEWIGFISYSGITNYNPTLQGRVTISRDNSKNTLYLQMNSLRAEDTAVYYCARSLARTTAMDYWGEGTLVTVSS
VL: DIQMTQSPSSLSASVGDSVTITCQASRDISSHLNWYQQKPGKAPELLIYYGSHLLSGVPSRFSGSGSGTDFTFTISSLEAEDAATYYCGQGNRLPYTFGQGTKVEIER
notes: Fully humanized
kd (pH 5.8)/kd (pH 7.4), pH … [3]: 10.9

Continued, values first:

fold higher affinity than TOCILIZUMAB [6]: ~60 times
fold affinity relative to TOCILIZUMAB [7]: ~60 times
IC50 (read off the curve) [8]: ~0.02 µg/mL
B4: RDC-23 (H chain RDC23H-IgG1; L chain RDC-23L-kappa) (antibody, V domains shown)
VH: QVQLQESGPGLVRPSQTLSLTCTVSGYSITSDHAWSWVRQPPGRGLEWIGYISYSGITTYNPSLKSRVTMLRDTSKNQFSLRLSSVTAADTAVYYCARVLARITAMDYWGQGSLVTVSS
VL: DIQMTQSPSSLSASVGDRVTITCRASQDISSYLNWYQQKPGKAPKLLIYYTSRLHSGVPSRFSGSGSGTDFTFTISSLQPEDIATYYCGQGNRLPYTFGQGTKVEIKR

kd (pH 5.8)/kd (pH 7.4), pH … [4]: 2.59
B7: H3pI/L73 (H chain H3pI-IgG1; L chain L73-kappa) (antibody, V domains shown)
VH: QVQLQESGPGLVKPSETLSLTCAVSGHSISHDHAHSWVRQPPGEGLEWIGYISYSGITNYNPSLKGRVTISRDTSKNQFSLKLSSVTAADTAAYYCARSLARTTAMDYWGEGTLVTVSS
VL: DIQMTQSPSSLSASVGDSVTITCQASQHISSHLNWYQQKPGKAPELLIYYGSHLHSGVPSRFSGSGSGTDFTFTISSLEAEDAATYYCGQGNRLPYTFGQGTKVEIER
notes: IgG1/kappa

kd (pH 5.8)/kd (pH 7.4), pH … [3]: 10.1
B8: Fv4-M73 (H chain VH3-M73; L chain VL3-kappa) (antibody, V domains shown)
VH: QVQLQESGPGLVKPSETLSLTCAVSGHSISHDHAWSWVRQPPGEGLEWIGFISYSGITNYNPSLQGRVTISRDNSKNTLYLQMNSLRAEDTAVYYCARSLARTTAMDYWGEGTLVTVSS
VL: DIQMTQSPSSLSASVGDSVTITCQASTDISSHLNWYQQKPGKAPELLIYYGSHLLSGVPSRFSGSGSGTDFTFTISSLEAEDAATYYCGQGNRLPYTFGQGTKVEIER
notes: Fully humanized
